Source: patent US20240207380A1, “NOVEL PEPTIDE TARGETING DENDRITIC CELLS, AND COMPOSITION FOR TREATING CANCER COMPRISING SAME” (INDUSTRY FOUNDATION OF CHONNAM NATIONAL UNIVERSITY, priority 2021, published 2024)
“Also recorded” adds a separate entry of the source.

Key:
TC-1 cells [1] = experiment: Antitumor effect in NLRC4-knockout TC-1 tumor-bearing mice; assay type: in vivo; conditions: 20 μg
From the text: (§1) Wild-type (WT), TLR5-knockout (TLR5^−/−) and NLRC4-knockout (NLRC4^−/−) mouse groups were implanted with TC-1 cells in the right mid-flank. […] The results are depicted in FIG. 25.

[2] = system: Bone marrow-derived dendritic cells (BMDCs); experiment: Antigen-presenting cell activation (CD80 and CD86 on BMDC surface); assay type: cell-based, C57BL/6 mice; conditions: 0.5 μg/ml, 24 hours
From the text: The cells were stained on ice with fluorophore-labeled antibodies before flow cytometry analysis.

BMDCs or RAW264.7 cells = experiment: Intracellular distribution of EF and DEF by confocal microscopy; assay type: cell-based; conditions: 20 μg/ml, 2 hours
Experimental: After incubation, the cells were harvested, washed, fixed with 100% methanol for 15 minutes at room temperature, and stained with anti-mouse CD11c^+ APC-conjugated antibody and DAPI, a nuclear stain, for 1 hour at room temperature. After two washes with cold 1×PBS, the intercellular distributions of the peptides within the dendritic cells (CD11c^+) were determined by confocal microscopy (LSM800).

TC-1 cells [3] = experiment: Antitumor efficacy of peptides in TC-1 tumor-bearing mice (survival, tumor volume); assay type: in vivo, C57BL/6 mice
Experimental: Female SPF C57BL/6 mice 7 to 8 weeks old were purchased from ORIENT (Seongnam-si, Gyeonggi-do, Korea). TC-1 cells were cultured in RPMI 1640 medium supplemented with 10% heat-inactivated FIBS, 100 units/ml penicillin, and 100 μg/ml streptomycin at 37° C. under 5% CO2. Tumors were established in mice by subcutaneous injection of 5×10^4 TC-1 cells in 100 μl of PBS into the right mid-flank of each mouse. […] Tumor growth was monitored every three days. The tumor volume was calculated with formula V=(tumor length)×(tumor width)×(tumor height)/2.
The tumor-bearing mice were administered the all-in-one vaccine of the present disclosure as in Example 5 and measured for survival rate and tumor volume in the same manner. For a positive control, a group of mice was immunized with HPV16 E7 CTL peptide (amino acid 49-57: […]), known as a cytotoxic T lymphocyte (CTL)-inducing peptide.

[4] = system: Bone marrow-derived dendritic cells (BMDCs); experiment: Cellular uptake of EF and DEF in BMDCs (flow cytometry); assay type: cell-based, C57BL/6 mice; conditions: 2 hours, anti-FlaB staining, FACS gated on CD11c+
Experimental: Cells treated with PBS alone were used as a negative control. After incubation, the cells were washed twice with cold 1×PBS containing 3% FBS and then stained with anti-mouse CD11c^+ antibody (eBioscience, Clone: N418, 25-0114-82) for 1 hour at 4° C. and fixed with 4% paraformaldehyde (T&I, BPP-9004) for 10 minutes at room temperature. The cells were permeabilized using a permeabilization kit according to the manufacturer's instructions (Invitrogen, 00-8333-56) and stained with anti-FlaB antibodies, followed by FACS analysis by gating upon the CD11c^+ population. The results are depicted in FIG. 14.

[5] = system: IFN-γ-producing cells of spleen (SPL) or tumor-draining lymph nodes (TDLNs); experiment: CTL peptide-specific immune response (IFN-γ ELISpot); assay type: in vivo, mice
Experimental: Single-cell suspensions from the spleen (SPL) or tumor-draining lymph nodes (TDLNs) were prepared by administering the peptides of the present disclosure to mice with or without tumors in the same manner as in Example 5. A total of 1×10^6 SPL or 2.5×10^5 TDLNs cells were seeded into 96-well Filtration ELISpot plates (Merck, HAMAS4510) and stimulated with 1 μg/ml E7 CTL peptide (amino acids 49-57: […]). Cells stimulated with 10 ng/ml concanavalin A were used as a positive control. After two days of culture of SPL cells or five days of culture of TDLN cells, IFN-γ-producing cells were detected by using the mouse IFN-γ ELISpot Set (BD Bioscience, 551083) according to the manufacturer's instructions. IFN-γ-producing cells were analyzed using a CTL-ImmunoSpot Analyzer and ImmunoSpot Professional Software version 5.0 (Cellular Technology, Shaker Heights, OH, USA).

CD8^+ T cells = experiment: Peptide-mediated CD8+ T cell activation (CFSE dilution, coculture with pulsed BMDCs); assay type: cell-based, mice
Experimental: CD8^+ splenocytes from TC-1 tumor-bearing mice were prepared using the MagniSort™ Mouse CD8 T Cell Enrichment kit (Invitrogen, 8804-6822) according to the manufacturer's instructions, and were labeled with 5 μM CFSE. EF- or DEF-pulsed BMDCs were cocultured with CFSE-stained CD8^+ cells at a ratio of 1:5 (BMDC:CD8^+ T cells) for 3 days in RPMI 1640 medium supplemented with 10% fetal bovine serum (HyClone, Logan, UT), 1% penicillin/streptomycin (Life Technologies, Grand Island, NY), and 50 μM 2-mercaptoethanol (Sigma, 516732). CD8^+ T cell proliferation was assessed by CFSE dilution using flow cytometry.

TLR5 = target: T1, TLR5 (Homo sapiens, UniProt O60602); assay type: cell-based; conditions: HEK-Blue hTLR5 cells
T1 construct: host or cells: HEK-Blue hTLR5 cells (HEK293-derived reporter line, own knowledge: stably transfected with the human TLR5 gene and an NF-kB-inducible SEAP reporter)
Experimental: Also, the EC50 was calculated using triplicate OD 620 nm values for each protein concentration over a wide range of protein concentrations (0.0375 nM-19.29 nM at the AAT Bioquest website).

[6] = In vivo distribution of FNR675-labeled peptides in draining inguinal lymph nodes; parameters: species or system  mice; conditions: subcutaneous
Experimental: Next, the conjugated proteins were quantitatively determined from the calibration curve of the FNR675-NHS ester using a UV-Vis spectrophotometer (UV-2700, Shimadzu, Japan).
The fluorescence signals in the draining lymph nodes were determined and are depicted in FIG. 16. In addition, six hours after injection, the draining inguinal LN (iLN) cells were prepared, and then in vivo DC-targeting was determined by FACS analysis gating upon CD11c^+ cell population, and the results are depicted in FIG. 17.

[7] = system: CTL epitope-specific tetramer+ CD8+ cells; experiment: Antigen-specific T cell immune response (E7 tetramer+ CD8+ cells in peripheral blood); assay type: in vivo, mice
Experimental: The peptides of the present disclosure as in Example 5 were administered to mice with or without tumors and peripheral blood was collected therefrom. After removal of RBC by RBC lysis buffer, the blood was stained with the tetramer antibody (PE-conjugated HPV16 H-2Db-[…], TB-5008-1, MBL) and CD8 antibody and analyzed by flow cytometry.

TC-1 cells [8] = experiment: Antitumor effect in TLR5-knockout TC-1 tumor-bearing mice; assay type: in vivo
From the text: as §1

[9] = versus E7 Pep+F positive control

T1 sequence (O60602 21-858): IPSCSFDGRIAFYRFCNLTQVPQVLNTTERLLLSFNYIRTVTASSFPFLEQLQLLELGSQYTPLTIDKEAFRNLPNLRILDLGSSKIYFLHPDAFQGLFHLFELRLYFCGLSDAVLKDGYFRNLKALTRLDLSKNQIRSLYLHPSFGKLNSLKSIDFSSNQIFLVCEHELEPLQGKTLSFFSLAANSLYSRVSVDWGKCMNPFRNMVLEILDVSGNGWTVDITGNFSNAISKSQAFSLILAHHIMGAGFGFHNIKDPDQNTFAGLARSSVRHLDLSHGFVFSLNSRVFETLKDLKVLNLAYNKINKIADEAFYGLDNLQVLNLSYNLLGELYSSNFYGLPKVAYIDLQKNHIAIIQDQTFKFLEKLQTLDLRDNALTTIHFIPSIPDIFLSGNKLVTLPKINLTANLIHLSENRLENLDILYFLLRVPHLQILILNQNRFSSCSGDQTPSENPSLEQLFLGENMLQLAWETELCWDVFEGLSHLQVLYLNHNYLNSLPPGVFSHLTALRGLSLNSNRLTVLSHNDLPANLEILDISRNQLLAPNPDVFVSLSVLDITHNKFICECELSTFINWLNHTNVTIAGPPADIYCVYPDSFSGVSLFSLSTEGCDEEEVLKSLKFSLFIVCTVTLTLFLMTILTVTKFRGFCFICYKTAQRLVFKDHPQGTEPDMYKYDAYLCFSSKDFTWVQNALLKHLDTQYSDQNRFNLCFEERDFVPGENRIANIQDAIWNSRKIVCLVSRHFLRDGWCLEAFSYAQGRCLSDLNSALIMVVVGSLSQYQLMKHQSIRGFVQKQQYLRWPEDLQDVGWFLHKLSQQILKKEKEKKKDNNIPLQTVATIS

B1: DEF (protein)
chain: MRFFCLGPLGFTKVDIDGPAGQAEPDRAHYNIVTFCCKCDSTLRLCVQSTHVDIRTLEDLLMGTLGIVCPICSQKPEFIDGPAGQAEPDRAHYNIVTFCCKCDSTLRLCVQSTHVDIRTLEDLLMGTLGIVCPICSQKPVDIDGPAGQAEPDRAHYNIVTFCCKCDSTLRLCVQSTHVDIRTLEDLLMGTLGIVCPICSQKPVDIDGPAGQAEPDRAHYNIVTFCCKCDSTLRLCVQSTHVDIRTLEDLLMGTLGIVCPICSQKPKLMAVNVNTNVAAMTAQRYLNNANSAQQTSMERLSSGFKINSAKDDAAGLQISNRLNVQSRGLDVAVRNANDGISIAQTAEGAMNETTNILQRMRDLSLQSANGSNSKSERVAIQEEVTALNDELNRIAETTSFGGNKLLNGTYGTKAMQIGADNGEAVMLSLKDMRSDNVMMGGVSYQAEEGKDKNWNVAAGDNDLTIALTDSFGNEQEIEINAKAGDDIEELATYINGQTDLVKASVGEGGKLQIFAGNNKVQGEIAFSGSLAGELGLGEGKNVTVDTIDVTTVQGAQESVAIVDAALKYVDSHRAELGAFQNRFNHAISNLDNINENVNASKSRIKDTDFAKETTQLTKTQILSQASSSILAQAKQAPNSALSLLGLEHHHHHH
modifications: DCpep6::4xE7deltaNLS::FlaB (DEF)
effects on tumor volume and survival (FIG. 25) (TC-1 cells [1]): abolished | expression of CD80 and CD86 on BMDC surface (FIG. 20) [2]: significantly enhanced expression | intracellular location (FIG. 15) (BMDCs or RAW264.7 cells): located in the cytoplasm of CD11c^+ cells | tumor volume (FIG. 19) (TC-1 cells [3]; among all administered groups): smallest | survival (FIG. 18) (TC-1 cells [3]; compared with E7ΔNLS (E)-administered group): significantly longer survival; also recorded: longest survival | survival compared with HPV16 E7 CTL peptide+FlaB (E7 Pep+F) group (FIG. 18) (TC-1 cells [3]; [9]): notably longer survival | tumor volume compared with HPV16 E7 CTL peptide+FlaB (E7 Pep+F) group (FIG. 19) (TC-1 cells [3]; [9]): remarkably much smaller | cellular uptake in bone marrow-derived dendritic cells (FIG. 14) [4]: concentration-dependent cellular uptake | IFN-γ production (FIG. 24) ([5]; mice without tumors): significantly higher level | IFN-γ production level in SPL and TDLNs (FIG. 23) ([5]; tumor-bearing mice, compared to PBS, E and EF): significantly enhanced | division index of CD8+ T cells (FIG. 26) (CD8^+ T cells; NLRC4-knockout (NLRC4^−/−) mice, 1 μg/mL): rather decreased | division index of CD8+ T cells (FIG. 26) (CD8^+ T cells; wild-type (WT) mice BMDCs pulsed with 1 μg/mL for 24 hours, coculture 1:5 for 3 days): significantly enhanced | NF-κB activity levels (FIG. 13) (TLR5): increased the activity in dose-dependent manners | time to removal from the draining lymph nodes post administration [6]: ≤ 24 h | tetramer-positive cells in peripheral blood (FIG. 22) ([7]; mice without tumors): remarkably high levels | CTL epitope-specific tetramer-positive CD8+ cells in peripheral blood (FIG. 21) ([7]; tumor-bearing mice, compared with PBS, E and EF groups): significantly higher levels | survival and tumor volume effect in TLR5^−/− mice relative to wild-type mice (FIG. 25) (TC-1 cells [8]; 20 μg, TLR5^−/− versus wild-type): significantly lower levels | survival (FIG. 25) (TC-1 cells [8]; TLR5^−/− mice, 20 μg subcutaneous peritumoral three times, compared to PBS group): significantly longer survival | tumor volume (FIG. 25) (TC-1 cells [8]; TLR5^−/− mice, 20 μg, compared to PBS group): decreased
